From patent publication USRE43371 (dated 2012)
Square brackets hold non-standard residues; d marks the D form. MeBmt = C/C=C/C[C@@H](C)[C@@H](O)[C@H](NC)C(=O)O; NMeI = CC[C@H](C)[C@H](NC)C(=O)O; NMeL = CN[C@@H](CC(C)C)C(=O)O; NMeV = CN[C@H](C(=O)O)C(C)C; Abu = CC[C@H](N)C(=O)O; Sar = CNCC(=O)O

Legend:
cyclophilin (Sigma) = assay: cell-based or functional assay
[1] = molecular target: T1, human recombinant cyclophilin A (Sigma) (human, UniProt P62937 1-165); assay: chymotrypsin-coupled spectrophotometric PPIase assay, tight binding inhibitor fit
T1 construct: Bought protein
T1 sequence (P62937 whole entry): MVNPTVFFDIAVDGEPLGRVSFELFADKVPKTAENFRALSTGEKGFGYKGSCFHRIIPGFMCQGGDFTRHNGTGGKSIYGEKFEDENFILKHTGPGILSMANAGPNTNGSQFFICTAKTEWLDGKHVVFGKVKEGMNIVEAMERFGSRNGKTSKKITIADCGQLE

Sequence of cyclophilin (Sigma) (P62937 whole entry): as above

cyclo([MeBmt][Abu][Sar][NMeI]V[NMeL]A[dA][NMeL][NMeL][NMeV]) (also called [Melle]^4-CsA; NIM811) [[MeIle]^4-CsA]
PPIase (IC50 of inhibition of cyclophilin PPIase activity, relative to cyclosporin A = 1.0) (cyclophilin (Sigma)): 0.5 relative to CsA | Ki [1]: 2.11 nM
